These results are taken from patent publication US20230136252A1 (NANJING LEGEND BIOTECH, published 2023).

In assay [1] the target is T1, recombinant human GPC2-His protein (human, UniProt Q8N158 24-554, limits assumed).
T1 construct: Bought protein; The SPR paragraph gives no catalogue number for GPC2-His; also called recombinant Human Glypican 2 Protein; recombinant human GPC2 protein; not shown: His tag
T1 sequence (looked up): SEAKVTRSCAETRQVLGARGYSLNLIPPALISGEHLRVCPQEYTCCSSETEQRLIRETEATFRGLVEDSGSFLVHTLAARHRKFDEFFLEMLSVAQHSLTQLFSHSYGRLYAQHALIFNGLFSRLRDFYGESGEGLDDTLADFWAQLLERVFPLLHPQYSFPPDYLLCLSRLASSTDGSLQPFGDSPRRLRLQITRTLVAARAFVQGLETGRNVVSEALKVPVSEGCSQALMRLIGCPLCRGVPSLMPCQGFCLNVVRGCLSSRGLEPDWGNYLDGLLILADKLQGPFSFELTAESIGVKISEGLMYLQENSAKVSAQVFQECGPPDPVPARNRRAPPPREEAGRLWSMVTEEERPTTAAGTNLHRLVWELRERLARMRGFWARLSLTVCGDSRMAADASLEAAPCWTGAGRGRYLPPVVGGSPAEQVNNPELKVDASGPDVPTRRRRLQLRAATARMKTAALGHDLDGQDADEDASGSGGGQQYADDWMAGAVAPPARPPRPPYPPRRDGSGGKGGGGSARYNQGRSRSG
The experiment in a line: SPR, Biacore T200, GPC2-His amine-coupled to CM5 chip, VHH-hIgG1Fc as analyte, 1:1 model. The procedure:
Each of the exemplary anti-GPC2 VHH sequences was cloned into a vector comprising a human IgG1Fc fragment (hlgG1Fc) sequence to facilitate recombinant expression of anti-GPC2 VHH-hlgG1Fc. Recombinant proteins were obtained and purified for SPR assays. The affinity of each anti-GPC2 VHH-hIgG1Fc for GPC2 was determined by SPR using a BIACORE® T200 analytical system (GE Healthcare). Briefly, recombinant human GPC2-His protein was covalently coupled to a CM5(s) sensor chip using an amine coupling kit. Exemplary VHH-hIgG1Fc proteins were serially diluted in running buffer (10 mM HEPES, 150 mM NaCl, 3 mM EDTA, 0.05% Tween-20, pH 7.4) and injected over the chip cell at a flowrate of 100 μL/min for 100 seconds followed by buffer-only injection for 300 seconds to allow for antibody dissociation. The dissociation […] (KD) were determined using the BIACORE® T200 evaluation software version 3.0 (Langmuir binding, local fit, 1:1 binding model).
Background: SPR reads the build-up and loss of mass on a sensor chip optically.

The target in assay [2] is T2, recombinant human GPC3-His (human, UniProt P51654 25-559).
T2 construct: Bought protein; also called ACRO Cat #GP3-H5223; not shown: His tag
The assay can be described thus: ELISA, plate coated with 2 ug/mL rhGPC3-his, VHH-hIgG1Fc detected with HRP goat anti-human IgG, OD450. On the procedure:
(§1) To evaluate the specificity of humanized anti-GPC2 VHH5 to recombinant human GPC2 protein, an ELISA-based binding assay was conducted to determine the differential target proteins binding of anti-GPC2 VHH5. Briefly, microplates were coated with 2 μg/mL recombinant human GPC1-His (RD System, Cat #4519-GP), GPC2-His (RD System, Cat #2304-GP), GPC3-His (ACRO, Cat #GP3-H5223), GPC4-Fc (RD System, Cat #9195-GP), GPC5-His (RD System, Cat #2607-G5/CF), GPC6-His (RD System, Cat #2845-GP) or recombinant mouse GPC2-His (RD System, Cat #2355-GP) proteins. Recombinant human protein coated plates were blocked with skim milk. Serially diluted humanized VHH-hIgG1Fc recombinant antibodies were added to each well of the plates and incubated at 4° C. for 1.5 h. Samples were further labelled with HRP-conjugated goat anti human IgG (H+L) secondary antibody (Genescript, Cat #A00166-1) and signal was developed with 3,3′,5,5′-Tetramethylbenzidine (TMB) substrate according to manufacturer's instruction. For the GPC4, VHH-His recombinant antibodies and anti-His tag secondary antibody (Genescript, Cat #A00612) were added to the GPC4-Fc coated plates instead. Optic density at 450 nm was measured by plate reader.

For assay [3], the target named is T3, recombinant human GPC6-His (human, UniProt Q9Y625 24-529, limits assumed).
T3 construct: Bought protein; also called RD System Cat #2845-GP; not shown: His tag
T3 sequence (looked up): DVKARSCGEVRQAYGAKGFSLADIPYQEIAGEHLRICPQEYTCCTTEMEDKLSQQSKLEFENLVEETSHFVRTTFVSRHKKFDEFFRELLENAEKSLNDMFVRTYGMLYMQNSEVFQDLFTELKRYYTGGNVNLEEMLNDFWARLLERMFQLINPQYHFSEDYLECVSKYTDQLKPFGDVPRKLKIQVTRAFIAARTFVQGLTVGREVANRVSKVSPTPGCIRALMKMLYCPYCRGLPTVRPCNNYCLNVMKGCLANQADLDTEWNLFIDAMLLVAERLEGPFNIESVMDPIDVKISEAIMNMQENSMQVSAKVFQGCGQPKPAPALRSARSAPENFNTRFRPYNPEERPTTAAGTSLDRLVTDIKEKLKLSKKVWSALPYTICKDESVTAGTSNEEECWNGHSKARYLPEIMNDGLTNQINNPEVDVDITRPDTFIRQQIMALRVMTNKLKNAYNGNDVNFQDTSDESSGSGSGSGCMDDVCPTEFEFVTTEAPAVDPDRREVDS
The experiment in a line: ELISA, plate coated with 2 ug/mL rhGPC6-his, VHH-hIgG1Fc detected with HRP goat anti-human IgG, OD450. On the procedure:
as §1
(ELISA stands for enzyme-linked immunosorbent assay.)

T2 sequence (P51654 25-559 limits assumed): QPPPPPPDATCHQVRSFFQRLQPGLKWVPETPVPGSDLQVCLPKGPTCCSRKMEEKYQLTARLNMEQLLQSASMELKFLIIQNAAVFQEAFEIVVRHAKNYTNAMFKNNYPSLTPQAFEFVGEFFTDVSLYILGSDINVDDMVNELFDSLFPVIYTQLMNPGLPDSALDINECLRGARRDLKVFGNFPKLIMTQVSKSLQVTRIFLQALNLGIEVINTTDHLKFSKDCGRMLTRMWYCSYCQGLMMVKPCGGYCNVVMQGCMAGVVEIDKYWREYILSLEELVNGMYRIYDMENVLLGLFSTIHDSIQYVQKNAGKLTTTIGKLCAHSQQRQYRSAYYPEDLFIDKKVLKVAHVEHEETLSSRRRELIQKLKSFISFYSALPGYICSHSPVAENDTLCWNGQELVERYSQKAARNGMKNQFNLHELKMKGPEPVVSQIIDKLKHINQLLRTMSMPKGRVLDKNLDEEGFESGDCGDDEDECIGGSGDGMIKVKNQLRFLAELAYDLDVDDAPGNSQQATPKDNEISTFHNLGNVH

B1: AS79236VH6-hIgG1Fc (Fc fusion)
chain: EVQLVESGGGLVQPGGSLRLSCAVSGYTYSSYCMAWFRQAPGKGLEGVASIDAGGRTTYVDSVKGRFTISKDNAKNSLYLQMNSLRAEDTAMYYCAVDVRTRCGGTWDGEAVYFPYWGQGTLVTVSS
notes: also called anti-GPC2 VHH-hIgG1Fc; not shown: human IgG1 Fc fragment (hIgG1Fc)
A word on the Kd: it is the constant that tells how readily two partners part at equilibrium. By koff is commonly meant the rate constant with which the complex falls apart. In general, kon refers to a measure of how fast the partners come together. For the molecule B1, in assay [1], the Kd stood at 0.37 nM, the koff was 0.00019 s⁻¹ and the kon stood at 530000 M⁻¹ s⁻¹. Besides, the binding result in assay [2] was “no binding (tested: about 300 nM)”. Besides, the binding result in assay [3] was “no binding (tested: about 300 nM)”.

B2: AS78117VH4-hIgG1Fc (Fc fusion)
chain: EVQLVESGGGLVQPGGSLRLSCIVSRYTYATYSMAWFRQAPGKGLEGVSGLDSVGATGYAESVKGRFTISRDNSKNTLYLQMNSLRAEDTAVYYCVVDPASAKVTYGSWSTPSYAYWGQGTLVTVSS
notes: as for B1
On to B2, for which, in assay [1], the Kd came out at 0.82 nM, the koff is 0.00017 s⁻¹ and the kon was 200000 M⁻¹ s⁻¹. In addition, in assay [2], the binding result is “no binding (tested: about 300 nM)”. Further, the binding result in assay [3] is given as “no binding (tested: about 300 nM)”.

B3: AS70950VH6-hIgG1Fc (Fc fusion)
chain: EVQLVESGGGLVQPGGSLRLSCAISEFTYKNTCVGWFRQAPGKGREGVAAIDSDGNTNYVDSVKGRFTISQDNSKNTVYLQMNSLRAEDTAMYYCAAGAYCGRLLLWIGNYAYWGQGTLVTVSS
notes: as for B1
As for B3, in assay [1], the Kd amounted to 0.27 nM, the koff came to 0.00011 s⁻¹ and the kon was found to be 390000 M⁻¹ s⁻¹. Moreover, in assay [2], the binding result was “no binding (tested: about 300 nM)”. Further, in assay [3], the binding result is reported as “no binding (tested: about 300 nM)”.
